Assay results as given in the supplement of paper PMC5998384.

What was measured:
HeLa Kyoto [1] = experiment: melting temperature (median over replicates), in situ; higher = more thermally stable
HeLa Kyoto [2] = experiment: solubility change mitosis vs G1/S (difference of NP-40 vs SDS log2 ratios) (log2 ratio difference); higher = more soluble in mitosis
HeLa Kyoto [3] = experiment: solubility in G1/S (NP-40 vs SDS abundance) (log2 ratio); higher = more soluble; settings: cell cycle stage: G1/S
HeLa Kyoto [4] = experiment: thermal stability score vs G1/S (z-score of summed log2 fold changes over temperatures); higher = more thermally stable than in G1/S
[5] = cell cycle stage: early G1 (4.5 h after nocodazole release)
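For melting temperature (median over replicates), in situ in this document: HeLa Kyoto cells synchronized by double thymidine or nocodazole block, proteins quantified by TMT10plex mass spectrometry, three independent biological replicates.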
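For solubility change mitosis vs G1/S (difference of NP-40 vs SDS log2 ratios) in this document: synchronized HeLa Kyoto cells (double thymidine block for G1/S, nocodazole release for mitosis), protein amounts in NP-40 versus SDS lysates quantified by mass spectrometry, three biological replicates.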
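For solubility in G1/S (NP-40 vs SDS abundance) in this document: HeLa Kyoto cells arrested at G1/S by double thymidine block, proteins quantified by TMT10plex mass spectrometry in mild NP-40 versus SDS extracts, three biological replicates.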
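For thermal stability score vs G1/S (z-score of summed log2 fold changes over temperatures) in this document: synchronized HeLa Kyoto cells, proteins quantified by TMT10plex mass spectrometry, three biological replicates, mitosis taken 0.5 h after nocodazole release, G1/S directly after double thymidine block.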

## MLRTTRGPGLGPPLLQAALGLGRAGWHWPAGRAASGGRGRAWLQPTGRETGVQVYNSLTGRKEPLIVAHAEAASWYSCGPTVYDHAHLGHACSYVRFDIIRRILTKVFGCSIVMVMGITDVDDKIIKRANEMNISPASLASLYEEDFKQDMAALKVLPPTVYLRVTENIPQIISFIEGIIARGNAYSTAKGNVYFDLKSRGDKYGKLVGVVPGPVGEPADSDKRHASDFALWKAAKPQEVFWASPWGPGRPGWHIECSAIASMVFGSQLDIHSGGIDLAFPHHENEIAQCEVFHQCEQWGNYFLHSGHLHAKGKEEKMSKSLKNYITIKDFLKTFSPDVFRFFCLRSSYRSAIDYSDSAMLQAQQLLLGLGSFLEDARAYMKGQLACGSVREAMLWERLSSTKRAVKAALADDFDTPRVVDAILGLAHHGNGQLRASLKEPEGPRSPAVFGAIISYFEQFFETVGISLANQQYVSGDGSEATLHGVVDELVRFRQKVRQFALAMPEATGDARRQQLLERQPLLEACDTLRRGLTAHGINIKDRSSTTSTWELLDQRTKDQKSAG [CARS2]
HeLa Kyoto [1]; cell cycle stage: G1/S
  melting temperature: 55.4 °C
HeLa Kyoto [1]; cell cycle stage: mitosis
  melting temperature: 54.1 °C
HeLa Kyoto [2]
  solubility change mitosis (log2): -0.0653
HeLa Kyoto [3]
  solubility in G1/S (log2): 0.0252
HeLa Kyoto [4]; [5]
  thermal stability score: 0.291
HeLa Kyoto [4]; cell cycle stage: mitosis
  thermal stability score: -0.0596

## MLSALARPASAALRRSFSTSAQNNAKVAVLGASGGIGQPLSLLLKNSPLVSRLTLYDIAHTPGVAADLSHIETKAAVKGYLGPEQLPDCLKGCDVVVIPAGVPRKPGMTRDDLFNTNATIVATLTAACAQHCPEAMICVIANPVNSTIPITAEVFKKHGVYNPNKIFGVTTLDIVRANTFVAELKGLDPARVNVPVIGGHAGKTIIPLISQCTPKVDFPQDQLTALTGRIQEAGTEVVKAKAGAGSATLSMAYAGARFVFSLVDAMNGKEGVVECSFVKSQETECTYFSTPLLLGKKGIEKNLGIGKVSSFEEKMISDAIPELKASIKKGEDFVKTLK [MDH2]
HeLa Kyoto [1]; cell cycle stage: G1/S
  melting temperature: 56.9 °C
HeLa Kyoto [1]; cell cycle stage: mitosis
  melting temperature: 57.2 °C
HeLa Kyoto [2]
  solubility change mitosis (log2): -0.0422
HeLa Kyoto [3]
  solubility in G1/S (log2): 0.383
HeLa Kyoto [4]; [5]
  thermal stability score: -0.843
HeLa Kyoto [4]; cell cycle stage: mitosis
  thermal stability score: -1.62

## MLSEVLLVSAPGKVILHGEHAVVHGKVALAVSLNLRTFLRLQPHSNGKVDLSLPNIGIKRAWDVARLQSLDTSFLEQGDVTTPTSEQVEKLKEVAGLPDDCAVTERLAVLAFLYLYLSICRKQRALPSLDIVVWSELPPGAGLGSSAAYSVCLAAALLTVCEEIPNPLKDGDCVNRWTKEDLELINKWAFQGERMIHGNPSGVDNAVSTWGGALRYHQGKISSLKRSPALQILLTNTKVPRNTRALVAGVRNRLLKFPEIVAPLLTSIDAISLECERVLGEMGEAPAPEQYLVLEELIDMNQHHLNALGVGHASLDQLCQVTRARGLHSKLTGAGGGGCGITLLKPGLEQPEVEATKQALTSCGFDCLETSIGAPGVSIHSATSLDSRVQQALDGL [MVK]
HeLa Kyoto [1]; cell cycle stage: G1/S
  melting temperature: 53.8 °C
HeLa Kyoto [1]; cell cycle stage: mitosis
  melting temperature: 54.3 °C
HeLa Kyoto [2]
  solubility change mitosis (log2): 0.006
HeLa Kyoto [3]
  solubility in G1/S (log2): 0.173
HeLa Kyoto [4]; [5]
  thermal stability score: -0.0917
HeLa Kyoto [4]; cell cycle stage: mitosis
  thermal stability score: 0.34

## MLSLDFLDDVRRMNKRQLYYQVLNFGMIVSSALMIWKGLMVITGSESPIVVVLSGSMEPAFHRGDLLFLTNRVEDPIRVGEIVVFRIEGREIPIVHRVLKIHEKQNGHIKFLTKGDNNAVDDRGLYKQGQHWLEKKDVVGRARGFVPYIGIVTILMNDYPKFKYAVLFLLGLFVLVHRE [SEC11A]
HeLa Kyoto [1]; cell cycle stage: G1/S
  melting temperature: 53.2 °C
HeLa Kyoto [1]; cell cycle stage: mitosis
  melting temperature: 52.3 °C
HeLa Kyoto [2]
  solubility change mitosis (log2): -0.117
HeLa Kyoto [3]
  solubility in G1/S (log2): -0.21
HeLa Kyoto [4]; [5]
  thermal stability score: 9.24
HeLa Kyoto [4]; cell cycle stage: mitosis
  thermal stability score: 7.47

## MLSLQYPDVYRDETAVQDYHGHKICDPYAWLEDPDSEQTKAFVEAQNKITVPFLEQCPIRGLYKERMTELYDYPKYSCHFKKGKRYFYFYNTGLQNQRVLYVQDSLEGEARVFLDPNILSDDGTVALRGYAFSEDGEYFAYGLSASGSDWVTIKFMKVDGAKELPDVLERVKFSCMAWTHDGKGMFYNSYPQQDGKSDGTETSTNLHQKLYYHVLGTDQSEDILCAEFPDEPKWMGGAELSDDGRYVLLSIREGCDPVNRLWYCDLQQESSGIAGILKWVKLIDNFEGEYDYVTNEGTVFTFKTNRQSPNYRVINIDFRDPEESKWKVLVPEHEKDVLEWIACVRSNFLVLCYLHDVKNILQLHDLTTGALLKTFPLDVGSIVGYSGQKKDTEIFYQFTSFLSPGIIYHCDLTKEELEPRVFREVTVKGIDASDYQTVQIFYPSKDGTKIPMFIVHKKGIKLDGSHPAFLYGYGGFNISITPNYSVSRLIFVRHMGGILAVANIRGGGEYGETWHKGGILANKQNCFDDFQCAAEYLIKEGYTSPKRLTINGGSNGGLLVAACANQRPDLFGCVIAQVGVMDMLKFHKYTIGHAWTTDYGCSDSKQHFEWLVKYSPLHNVKLPEADDIQYPSMLLLTADHDDRVVPLHSLKFIATLQYIVGRSRKQSNPLLIHVDTKAGHGAGKPTAKVIEEVSDMFAFIARCLNVDWIP [PREP]
HeLa Kyoto [1]; cell cycle stage: G1/S
  melting temperature: 49.3 °C
HeLa Kyoto [1]; cell cycle stage: mitosis
  melting temperature: 49.5 °C
HeLa Kyoto [2]
  solubility change mitosis (log2): -0.186
HeLa Kyoto [3]
  solubility in G1/S (log2): 0.00417
HeLa Kyoto [4]; [5]
  thermal stability score: -0.0879
HeLa Kyoto [4]; cell cycle stage: mitosis
  thermal stability score: 0.619
